Results from paper PMC2958309 (Journal of Molecular and Cellular Cardiology, 2010).
Read-outs that look alike come from different tables or passages of the source.

T1: wild type sorcin (soluble resistance-related calcium binding protein) ( (human or Chinese hamster …, UniProt P05044 1-198))
T1 sequence (looked up): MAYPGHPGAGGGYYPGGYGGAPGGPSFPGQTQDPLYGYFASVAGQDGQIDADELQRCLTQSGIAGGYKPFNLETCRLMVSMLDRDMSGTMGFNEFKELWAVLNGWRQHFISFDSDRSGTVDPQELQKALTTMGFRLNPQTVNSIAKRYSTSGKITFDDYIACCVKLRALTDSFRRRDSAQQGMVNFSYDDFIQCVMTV

T2: sorcin W105G variant ( (human or Chinese hamster …, UniProt P05044 1-198, W105G))
T2 sequence (looked up): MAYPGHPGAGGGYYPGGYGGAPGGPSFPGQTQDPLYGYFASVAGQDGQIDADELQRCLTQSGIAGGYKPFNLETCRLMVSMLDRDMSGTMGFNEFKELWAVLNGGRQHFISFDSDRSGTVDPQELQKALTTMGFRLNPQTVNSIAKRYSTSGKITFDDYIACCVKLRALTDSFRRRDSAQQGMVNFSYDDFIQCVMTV


Columns and labels:
Assay in all cases: SPR
[1] = target: T1, wild type sorcin (soluble …)
[2] = target: T1, wild type sorcin (soluble …); remark: listed apart in the source
[3] = target: T1, wild type sorcin (soluble …); remark: listed apart in the source
sorcin W105G variant = target: T2, sorcin W105G variant

| Kd [1] [µM] | koff [1] [s⁻¹] | kon [1] [M⁻¹ s⁻¹] | koff [2] [s⁻¹] | Kd [3] [µM] | koff [3] [s⁻¹] | kon [3] [M⁻¹ s⁻¹] | binding result (sorcin W105G variant) | Binder |
| --- | --- | --- | --- | --- | --- | --- | --- | --- |
| 7 | 0.27 ± 0.1 | 40000 | 0.9 ± 0.4 | 1.2 | 0.08 ± 0.1 | 70000 | binds | NCX1 Calcium Binding Domain 1 (CBD1) (domain or fragment, Mus musculus, UniProt P70414 397-539, looked up) MAENDPVSKIFFEQGTYQCLENCGTVALTIMRRGGDLSTTVFVDFRTEDGTANAASDYEFTEGTVIFKPGETQKEIRVGIIDDDIFEEDENFLVHLSNVRVSSDVSEDGILESNHASSIACLGSPSTATITIFDDDHAGIFTF |
| 3 | 0.24 ± 0.1 | 80000 | 0.6 ± 0.2 | 1 | 0.05 ± 0.03 | 50000 | – | NCX1 Calcium Binding Domain 2 (CBD2) (domain or fragment, Mus musculus, UniProt P70414 527-712, looked up) TIFDDDHAGIFTFEEPVTHVSESIGIMEVKVLRTSGARGNVIIPYKTIEGTARGGGEDFEDTCGEPEFQNDEIVKTISVKVIDDEEYEKNKTFFIEIGEPRLVEMSEKKALLLNELGGFTLTGKEMYGQPIFRKVHARDHPIPSTVITISEEYDDKQPLTSKEEEERRIAEMGRPILGEHTKLEVI |
